Common to all, as to conditions: ligand
Assay [1] has as its target human IGF-1 receptor (human) (UniProt P08069).
The target in assay [2] is human insulin receptor isoform A (human) (UniProt P06213).
For assay [3] the target is unchanged. This is another data set of the same source.
The target in assay [4] is human IGF-1 receptor (human) (UniProt P08069). This is another data set of the same source.
Assay [5] shares this target. This is another data set of the same source.
Assay [6] concerns the target human insulin receptor isoform A (human) (UniProt P06213). This is another data set of the same source.
For assay [7] the target is unchanged. The source holds these as a separate data set.
Assay [8] deals with human IGF-1 receptor (human) (UniProt P08069). The source holds these as a separate data set.
Assay [9] has the same target. The source holds these as a separate data set.
For assay [10], the target named is human insulin receptor isoform A (human) (UniProt P06213). The source holds these as a separate data set.

Read-outs that look alike come from different tables or passages of the source.

UniProt P06213, sequence (P06213 other isoform, or with tags, fused parts or gaps): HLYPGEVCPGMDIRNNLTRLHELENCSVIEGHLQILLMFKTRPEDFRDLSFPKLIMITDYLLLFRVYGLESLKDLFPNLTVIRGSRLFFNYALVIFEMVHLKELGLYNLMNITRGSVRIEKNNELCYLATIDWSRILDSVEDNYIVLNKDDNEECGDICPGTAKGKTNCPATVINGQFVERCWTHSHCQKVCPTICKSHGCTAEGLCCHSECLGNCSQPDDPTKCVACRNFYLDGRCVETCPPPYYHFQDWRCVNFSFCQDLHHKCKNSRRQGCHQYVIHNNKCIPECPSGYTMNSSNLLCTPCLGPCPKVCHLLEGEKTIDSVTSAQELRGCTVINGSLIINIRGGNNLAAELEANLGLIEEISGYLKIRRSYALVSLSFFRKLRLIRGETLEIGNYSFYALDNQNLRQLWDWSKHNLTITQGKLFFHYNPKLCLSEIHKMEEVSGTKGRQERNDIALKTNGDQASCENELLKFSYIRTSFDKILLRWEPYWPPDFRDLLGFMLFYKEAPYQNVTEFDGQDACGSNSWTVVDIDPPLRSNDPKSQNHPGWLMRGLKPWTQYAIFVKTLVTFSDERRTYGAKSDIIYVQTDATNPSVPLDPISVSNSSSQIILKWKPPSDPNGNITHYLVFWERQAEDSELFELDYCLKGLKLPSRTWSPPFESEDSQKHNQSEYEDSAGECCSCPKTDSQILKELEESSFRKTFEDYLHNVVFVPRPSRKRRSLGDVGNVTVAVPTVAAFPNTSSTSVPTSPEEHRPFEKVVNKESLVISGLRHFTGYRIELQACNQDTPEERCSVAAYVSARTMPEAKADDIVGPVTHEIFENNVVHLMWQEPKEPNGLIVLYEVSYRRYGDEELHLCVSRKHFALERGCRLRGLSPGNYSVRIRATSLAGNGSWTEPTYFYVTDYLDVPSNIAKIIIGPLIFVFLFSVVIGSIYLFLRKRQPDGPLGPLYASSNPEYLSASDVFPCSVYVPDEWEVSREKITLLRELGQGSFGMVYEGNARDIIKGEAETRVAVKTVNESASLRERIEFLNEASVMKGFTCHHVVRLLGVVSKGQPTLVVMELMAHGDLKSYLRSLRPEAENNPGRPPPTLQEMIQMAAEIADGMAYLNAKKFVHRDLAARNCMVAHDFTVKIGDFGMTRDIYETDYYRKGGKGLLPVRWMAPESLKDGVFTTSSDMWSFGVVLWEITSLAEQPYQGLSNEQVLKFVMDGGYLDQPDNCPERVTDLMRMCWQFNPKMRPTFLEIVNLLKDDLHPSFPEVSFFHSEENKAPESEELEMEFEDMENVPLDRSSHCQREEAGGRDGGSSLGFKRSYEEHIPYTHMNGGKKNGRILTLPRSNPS

Turning to “Asp-57–IGF-2 (from UniProt P01344 49-115)”, the values for the Kd in assay [1] and in assay [2] were 0.5 nM and 2.96 nM, respectively.

“His-50–IGF-2 (from UniProt P01344 49-115)”: the dissociation constant (Kd) in [3] worked out at 2.1 nM; in assay [4], 1.6 nM.

Consider “His-53–IGF-2 (from UniProt P01344 49-115)”, for which the Kd in [5] turned out to be 1.2 nM; in assay [6], 4.1 nM.

Regarding “Thr-50–IGF-2 (from UniProt P01344 49-115)”, the values for the Kd in assay [7] and in assay [8] were 2.7 nM and 0.84 nM, respectively.

Turning to “Val-53–IGF-2 (from UniProt P01344 49-115)”, the values for the Kd in [9] and in [10] were 1.5 nM and 2.9 nM, respectively.

One may read the Kd as the concentration at which binding is half-saturated. Lower therefore signals a tighter complex.

The values are drawn from PMC6873181.
